# Key:
# HLA-A*02:01 = HLA-A*02:01 (Homo sapiens, UniProt P04439, D140Y/D185E/D98H/E176V/E277Q/G131W/G231S/I119V/I121R/I166T/I218V/L300P/L318F/N151K/N90K/P208A/P217A/Q86G/Q94H/R138H/R169H/T345S); assay: MHC binding assay: UV-ligand exchange with beta2m ELISA (exchange yield); conditions: binding to HLA-A*02:01, β2m ELISA
# Method in brief: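 Peptide–HLA-A*02:01 complexes formed by UV-induced exchange of a photocleavable ligand for the test peptide. Exchange products diluted 100-fold and captured on streptavidin-coated plates. Stabilized complexes detected with HRP anti-β2m (1 h, 37° C.) and TMB, A450; exchange yield reported.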
# CD8+ T cells = assay: In vitro T-cell priming assay with aAPCs loaded with peptide/MHC complexes and anti-CD28, multimer staining readout (in vitro immunogenicity); format: cell-based, human; conditions: HLA-A*02 restricted peptides
# Source text: In order to obtain information regarding the immunogenicity of the TUMAPs of the present invention, the inventors performed investigations using an in vitro T-cell priming assay based on repeated stimulations of CD8+ T cells with artificial antigen presenting cells (aAPCs) loaded with peptide/MHC complexes and anti-CD28 antibody.
# In order to perform in vitro stimulations by artificial antigen presenting cells loaded with peptide-MHC complex (pMHC) and anti-CD28 antibody, the inventors first isolated CD8+ T cells from fresh HLA-A*02 leukapheresis products via positive selection using CD8 microbeads (Miltenyi Biotec, Bergisch-Gladbach, Germany) of healthy donors obtained from the University clinics Mannheim, Germany, after informed consent.
# PBMCs and isolated CD8+ lymphocytes were incubated in T-cell medium (TCM) until use consisting of RPMI-Glutamax (Invitrogen, Karlsruhe, Germany) supplemented with 10% heat inactivated human AB serum (PAN-Biotech, Aidenbach, Germany), 100 U/ml Penicillin/100 μg/ml Streptomycin (Cambrex, Cologne, Germany), 1 mM sodium pyruvate (CC Pro, Oberdorla, Germany), 20 μg/ml Gentamycin (Cambrex). 2.5 ng/ml IL-7 (PromoCell, Heidelberg, Germany) and 10 U/ml IL-2 (Novartis Pharma, Nurnberg, Germany) were also added to the TCM at this step.
# Generation of pMHC/anti-CD28 coated beads, T-cell stimulations and readout was performed in a highly defined in vitro system using four different pMHC molecules per stimulation condition and 8 different pMHC molecules per readout condition.
# The purified co-stimulatory mouse IgG2a anti human CD28 Ab 9.3 (Jung et al., 1987) was chemically biotinylated using Sulfo-N-hydroxysuccinimidobiotin as recommended by the manufacturer (Perbio, Bonn, Germany). Beads used were 5.6 μm diameter streptavidin coated polystyrene particles (Bangs Laboratories, Illinois, USA).
# pMHC used for positive and negative control stimulations were A*0201/MLA-001 (peptide […] (SEQ ID NO. 664) from modified Melan-A/MART-1) and A*0201/DDX5-001 ([…] from DDX5, SEQ ID NO. 665), respectively.
# 800.000 beads/200 μl were coated in 96-well plates in the presence of 4×12.5 ng different biotin-pMHC, washed and 600 ng biotin anti-CD28 were added subsequently in a volume of 200 μl. Stimulations were initiated in 96-well plates by co-incubating […] CD8+ T cells with 2×10^5 washed coated beads in 200 μl TCM supplemented with 5 ng/ml IL-12 (PromoCell) for 3 days at 37° C. Half of the medium was then exchanged by fresh TCM supplemented with 80 U/ml IL-2 and incubating was continued for 4 days at 37° C. This stimulation cycle was performed for a total of three times. For the pMHC multimer readout using 8 different pMHC molecules per condition, a two-dimensional combinatorial coding approach was used as previously described (Andersen et al., 2012) with minor modifications encompassing coupling to 5 different fluorochromes. Finally, multimeric analyses were performed by staining the cells with Live/dead near IR dye (Invitrogen, Karlsruhe, Germany), CD8-FITC antibody clone SK1 (BD, Heidelberg, Germany) and fluorescent pMHC multimers. For analysis, a BD LSRII SORP cytometer equipped with appropriate lasers and filters was used. Peptide specific cells were calculated as percentage of total CD8+ cells. Evaluation of multimeric analysis was done using the FlowJo software (Tree Star, Oreg., USA). In vitro priming of specific multimer+ CD8+ lymphocytes was detected by comparing to negative control stimulations.
# Exemplary flow cytometry results after TUMAP-specific multimer staining for two peptides of the invention are shown in FIG. 3 together with corresponding negative controls.
"Peptide exchange (MHC class I binding score, peptide exchange yield) (HLA-A*02:01)",Substance,Wells positive [%] (CD8+ T cells)
“++” (≥20% = ++),511 (FLDPYCSASV; listed as Homo sapiens) [compound 511],“+” (<20% = +)
“+++” (≥50 = +++),247 (VLLPNDLLEKV; listed as Homo sapiens) [compound 247],“+” (<20% = +)
“++++” (≥75% = ++++),56 (KLYEGIPVLL; listed as Homo sapiens) [compound 56],“+” (<20% = +)
“+++” (≥50 = +++),38 (FLLEDDIHVS; listed as Homo sapiens) [compound 38],“+” (<20% = +)
“+++” (≥50 = +++),384 (ILFANPNIFV; listed as Homo sapiens) [compound 384],“+” (<20% = +)
“+++” (≥50 = +++),489 (KMWEELPEVV; listed as Homo sapiens) [compound 489],“+” (<20% = +)
